Source: PMC6771230

Test system: YB-1
Assay: EMSA
Conditions: serial-diluted protein; RNA-EMSA in Thermo Scientific kit binding buffer, 6% polyacrylamide gel; salt, pH and temperature not stated

H19 RNA fragment 661-745 (85 nt)
Kd: 7.4 µM
